Data set [1] relates to HeLa Kyoto. As to the kind of experiment: thermal stability score vs G1/S (z-score of summed log2 fold changes over temperatures); higher = more thermally stable than in G1/S.
Data set [2] concerns HeLa Kyoto. In words: solubility change mitosis vs G1/S (difference of NP-40 vs SDS log2 ratios) (log2 ratio difference); higher = more soluble in mitosis.
For data set [3], the system named is HeLa Kyoto. As to the kind of experiment: melting temperature (median over replicates), in situ; higher = more thermally stable.
The subject of data set [4] is HeLa Kyoto. As to the kind of experiment: solubility in G1/S (NP-40 vs SDS abundance) (log2 ratio); higher = more soluble. As to conditions: cell cycle stage: G1/S.
Setting [5] is: cell cycle stage: early G1 (4.5 h after nocodazole release).
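For melting temperature (median over replicates), in situ in this document: HeLa Kyoto cells synchronized by double thymidine or nocodazole block, proteins quantified by TMT10plex mass spectrometry, three independent biological replicates.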
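For solubility change mitosis vs G1/S (difference of NP-40 vs SDS log2 ratios) in this document: synchronized HeLa Kyoto cells (double thymidine block for G1/S, nocodazole release for mitosis), protein amounts in NP-40 versus SDS lysates quantified by mass spectrometry, three biological replicates.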
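For solubility in G1/S (NP-40 vs SDS abundance) in this document: HeLa Kyoto cells arrested at G1/S by double thymidine block, proteins quantified by TMT10plex mass spectrometry in mild NP-40 versus SDS extracts, three biological replicates.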
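For thermal stability score vs G1/S (z-score of summed log2 fold changes over temperatures) in this document: synchronized HeLa Kyoto cells, proteins quantified by TMT10plex mass spectrometry, three biological replicates, mitosis taken 0.5 h after nocodazole release, G1/S directly after double thymidine block.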

With “MTSLTQRSSGLVQRRTEASRNAADKERAAGGGAGSSEDDAQSRRDEQDDDDKGDSKETRLTLMEEVLLLGLKDREGYTSFWNDCISSGLRGCMLIELALRGRLQLEACGMRRKSLLTRKVICKSDAPTGDVLLDEALKHVKETQPPETVQNWIELLSGETWNPLKLHYQLRNVRERLAKNLVEKGVLTTEKQNFLLFDMTTHPLTNNNIKQRLIKKVQEAVLDKWVNDPHRMDRRLLALIYLAHASDVLENAFAPLLDEQYDLATKRVRQLLDLDPEVECLKANTNEVLWAVVAAFTK [GOLPH3]”, the figures for the thermal stability score with HeLa Kyoto [1] (setting [5]) and in the data set on HeLa Kyoto [1] (cell cycle stage: mitosis) were 0.551 and -0.641, respectively. Moreover, in the data set on HeLa Kyoto [2], the “solubility change mitosis (log2)” value was -0.137. The melting temperature with HeLa Kyoto [3] (cell cycle stage: G1/S) was 51.9 °C; with HeLa Kyoto [3] (cell cycle stage: mitosis), 51.5 °C. Besides, in the data set with HeLa Kyoto [4], the “solubility in G1/S (log2)” value was 0.434.

Turning to “MRCALALSALLLLLSTPPLLPSSPSPSPSPSQNATQTTTDSSNKTAPTPASSVTIMATDTAQQSTVPTSKANEILASVKATTLGVSSDSPGTTTLAQQVSGPVNTTVARGGGSGNPTTTIESPKSTKSADTTTVATSTATAKPNTTSSQNGAEDTTNSGGKSSHSVTTDLTSTKAEHLTTPHPTSPLSPRQPTSTHPVATPTSSGHDHLMKISSSSSTVAIPGYTFTSPGMTTTLLETVFHHVSQAGLELLTSGDLPTLASQSAGITASSVISQRTQQTSSQMPASSTAPSSQETVQPTSPATALRTPTLPETMSSSPTAASTTHRYPKTPSPTVAHESNWAKCEDLETQTQSEKQLVLNLTGNTLCAGGASDEKLISLICRAVKATFNPAQDKCGIRLASVPGSQTVVVKEITIHTKLPAKDVYERLKDKWDELKEAGVSDMKLGDQGPPEEAEDRFSMPLIITIVCMASFLLLVAALYGCCHQRLSQRKDQQRLTEELQTVENGYHDNPTLEVMETSSEMQEKKVVSLNGELGDSWIVPLDNLTKDDLDEEEDTHL [PODXL]”, the thermal stability score is -3.38 with HeLa Kyoto [1] (setting [5]) and -2.15 in the data set on HeLa Kyoto [1] (cell cycle stage: mitosis). The “solubility change mitosis (log2)” value with HeLa Kyoto [2] is -0.092. For the same sequence, in the data set on HeLa Kyoto [3] (cell cycle stage: G1/S), the melting temperature came to 58.6 °C. Besides, the “solubility in G1/S (log2)” value with HeLa Kyoto [4] was -0.214.

In the case of “MSATVVDAVNAAPLSGSKEMSLEEPKKMTREDWRKKKELEEQRKLGNAPAEVDEEGKDINPHIPQYISSVPWYIDPSKRPTLKHQRPQPEKQKQFSSSGEWYKRGVKENSIITKYRKGACENCGAMTHKKKDCFERPRRVGAKFTGTNIAPDEHVQPQLMFDYDGKRDRWNGYNPEEHMKIVEEYAKVDLAKRTLKAQKLQEELASGKLVEQANSPKHQWGEEEPNSQMEKDHNSEDEDEDKYADDIDMPGQNFDSKRRITVRNLRIREDIAKYLRNLDPNSAYYDPKTRAMRENPYANAGKNPDEVSYAGDNFVRYTGDTISMAQTQLFAWEAYDKGSEVHLQADPTKLELLYKSFKVKKEDFKEQQKESILEKYGGQEHLDAPPAELLLAQTEDYVEYSRHGTVIKGQERAVACSKYEEDVKIHNHTHIWGSYWKEGRWGYKCCHSFFKYSYCTGEAGKEIVNSEECIINEITGEESVKKPQTLMELHQEKLKEEKKKKKKKKKKHRKSSSDSDDEEKKHEKLKKALNAEEARLLHVKETMQIDERKRPYNSMYETREPTEEEMEAYRMKRQRPDDPMASFLGQ [SLU7]”, the thermal stability score in the data set with HeLa Kyoto [1] (setting [5]) was determined as 0.191; in the data set with HeLa Kyoto [1] (cell cycle stage: mitosis) it was 0.493. For the same sequence, the “solubility change mitosis (log2)” value with HeLa Kyoto [2] is 0.256. Also, the melting temperature in the data set on HeLa Kyoto [3] (cell cycle stage: G1/S) was found to be 46.9 °C; in the data set on HeLa Kyoto [3] (cell cycle stage: mitosis) it was 49.9 °C. Besides, in the data set with HeLa Kyoto [4], the “solubility in G1/S (log2)” value was -0.523.

As for “MFKVIQRSVGPASLSLLTFKVYAAPKKDSPPKNSVKVDELSLYSVPEGQSKYVEEARSQLEESISQLRHYCEPYTTWCQETYSQTKPKMQSLVQWGLDSYDYLQNAPPGFFPRLGVIGFAGLIGLLLARGSKIKKLVYPPGFMGLAASLYYPQQAIVFAQVSGERLYDWGLRGYIVIEDLWKENFQKPGNVKNSPGTK [APOO]”, the thermal stability score was -1.86 in the data set with HeLa Kyoto [1] (setting [5]) and -2.5 in the data set on HeLa Kyoto [1] (cell cycle stage: mitosis). Moreover, in the data set with HeLa Kyoto [2], the “solubility change mitosis (log2)” value is 0.185. The melting temperature in the data set on HeLa Kyoto [3] (cell cycle stage: G1/S) came to 54.8 °C; in the data set with HeLa Kyoto [3] (cell cycle stage: mitosis), 56 °C. For the same sequence, the “solubility in G1/S (log2)” value with HeLa Kyoto [4] came to 0.444.

For the sequence “MDDFERRRELRRQKREEMRLEAERIAYQRNDDDEEEAARERRRRARQERLRQKQEEESLGQVTDQVEVNAQNSVPDEEAKTTTTNTQVEGDDEAAFLERLARREERRQKRLQEALERQKEFDPTITDASLSLPSRRMQNDTAENETTEKEEKSESRQERYEIEETETVTKSYQKNDWRDAEENKKEDKEKEEEEEEKPKRGSIGENQVEVMVEEKTTESQEETVVMSLKNGQISSEEPKQEEEREQGSDEISHHEKMEEEDKERAEAERARLEAEERERIKAEQDKKIADERARIEAEEKAAAQERERREAEERERMREEEKRAAEERQRIKEEEKRAAEERQRIKEEEKRAAEERQRIKEEEKRAAEERQRARAEEEEKAKVEEQKRNKQLEEKKHAMQETKIKGEKVEQKIEGKWVNEKKAQEDKLQTAVLKKQGEEKGTKVQAKREKLQEDKPTFKKEEIKDEKIKKDKEPKEEVKSFMDRKKGFTEVKSQNGEFMTHKLKHTENTFSRPGGRASVDTKEAEGAPQVEAGKRLEELRRRRGETESEEFEKLKQKQQEAALELEELKKKREERRKVLEEEEQRRKQEEADRKLREEEEKRRLKEEIERRRAEAAEKRQKMPEDGLSDDKKPFKCFTPKGSSLKIEERAEFLNKSVQKSSGVKSTHQAAIVSKIDSRLEQYTSAIEGTKSAKPTKPAASDLPVPAEGVRNIKSMWEKGNVFSSPTAAGTPNKETAGLKVGVSSRINEWLTKTPDGNKSPAPKPSDLRPGDVSSKRNLWEKQSVDKVTSPTKV [CALD1]”, the thermal stability score in the data set on HeLa Kyoto [1] (setting [5]) is 0.295; in the data set with HeLa Kyoto [1] (cell cycle stage: mitosis), -2.2. The “solubility change mitosis (log2)” value in the data set on HeLa Kyoto [2] was 0.119. Further, the melting temperature with HeLa Kyoto [3] (cell cycle stage: G1/S) and in the data set with HeLa Kyoto [3] (cell cycle stage: mitosis) was 57.1 °C each time. Further, the “solubility in G1/S (log2)” value in the data set on HeLa Kyoto [4] came out at 0.0624.

Source of the values: the supplement of paper PMC5998384.
